From patent publication US20170368136A1 (REGENTS OF THE UNIVERSITY OF COLORADO A BODY CORPORATE, published 2017)
Blank lines part the entries; values can stand above or below the binder they belong to.

Target: CaMKII
Test: cell-based or functional assay

Chain of CaMKII (chain, from a related filing, as listed by the source): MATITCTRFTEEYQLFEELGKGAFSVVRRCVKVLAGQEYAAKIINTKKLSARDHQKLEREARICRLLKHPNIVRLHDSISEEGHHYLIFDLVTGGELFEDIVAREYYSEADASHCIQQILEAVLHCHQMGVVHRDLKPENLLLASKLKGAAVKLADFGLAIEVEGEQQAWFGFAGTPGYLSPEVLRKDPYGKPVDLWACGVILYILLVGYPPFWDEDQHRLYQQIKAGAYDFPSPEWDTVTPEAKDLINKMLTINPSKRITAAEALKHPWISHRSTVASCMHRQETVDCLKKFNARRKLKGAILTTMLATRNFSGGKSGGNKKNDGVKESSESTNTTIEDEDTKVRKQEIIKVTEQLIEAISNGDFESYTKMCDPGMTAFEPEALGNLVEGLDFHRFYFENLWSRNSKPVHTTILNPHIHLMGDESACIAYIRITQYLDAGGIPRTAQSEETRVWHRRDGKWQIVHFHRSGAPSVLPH

- IC50 of CaMKII inhibition: ~1 nM
Binder: KRAPKLGQIGRVKAVDIED [CN19a2v V16D]

- IC50, phosphorylation of syntide 2 by CaMKII: ~100 nM
Binder: KRPPKLGQIGRSKRVVIEDD [CN20]

- IC50 of CaMKII inhibition (CaMKII activity assay, 0.1 nM CaMKII): ~0.75 nM
- fold potency of CaMKII inhibition against CN19: > 125 fold
Binder: KRAPKLGQIGRQKAVDIED [CN19o]

Second part, the binder before the results:

Binder: KRAPKLGQIGRVKAVVIED [CN19a2v]
- IC50 of CaMKII inhibition (syntide 2): ~20 nM
- fold potency of CaMKII inhibition against CN19: ~5 fold

Binder: KRAPKLGQIGRQKAVVIED [CN19a2v V12Q]
- IC50 of CaMKII inhibition: ~1 nM

Binder: KRPPKLGQIGASKRVVIED [CN19 R11A]
- fold reduction of potency of CaMKII inhibition against CN19: > 3 fold

Binder: KRPPKLGQIGRSKRVVIED [CN19]
- IC50, phosphorylation of syntide 2 by CaMKII: ~100 nM

Binder: KRPPKLGQIGRAKRVVIED [CN19 S12A]
- fold decrease of potency of CaMKII inhibition against CN19: > 3 fold

Binder: KRPPKLGQIGRSKAVVIED [CN19 R14A]
- fold increase of potency of CaMKII inhibition against CN19 wild type: > 10 fold
